Assay results taken from the supplement of paper PMC11908140.

B1: library; numbered along this chain (parent)
chain: MRKPRAAVGSGHRKQAASQEGRQKHAKNNSQAKPSACDGLARQPEEVVLQASVSSYHLFRDVAEVTAFRGSLLSWYDQEKRDLPWRRRAEDEMDLDRRAYAVWVSEVMLQQTQVATVINYYTGWMQKWPTLQDLASASLEEVNQLWAGLGYYSRGRRLQEGARKVVEELGGHMPRTAETLQQLLPGVGRYTAGAIASIAFGQATGVVDGNVARVLCRVRAIGADPSSTLVSQQLWGLAQQLVDPARPGDFNQAAMELGATVCTPQRPLCSQCPVESLCRARQRVEQEQLLASGSLSGSPDVEECAPNTGQCHLCLPPSEPWDQTLGVVNFPRKASRKPPREESSATCVLEQPGALGAQILLVQRPNSGLLAGLWEFPSVTWEPSEQLQRKALLQELQRWAGPLPATHLRHLGEVVHTFSHIKLTYQVYGLALEGQTPVTTVPPGARWLTQEEFHTAAVSTAMKKVFRVYQGQQPGTCMGSKRSQVSSPCSRKKPRMGQQVLDNFFRSHISTDAHSLNSAAQ

Variants of: B1
Assay: 8OG:A repair function score (normalized; synonymous = 0, nonsense = -1) (normalized log-likelihood score); higher = more repair activity (WT-like)
Details: with 8OG:A DNA repair reporter (GFP) in HEK-293 MUTYH KO cells
Method: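 Saturation mutagenesis (NNN codon scan) of the MUTYH cDNA (521-aa nuclear isoform NM_001048174.1 / NP_001041639), stably expressed under doxycycline induction in HEK-293 MUTYH knockout cells. Cells were co-transfected with an 8OG:A-bearing GFP repair reporter plus mCherry and sorted 72 h later into GFP+ and GFP− bins, three replicates per tile. The Rosace log2 enrichment (GFP+ vs GFP−) was converted per tile to a normalized function score with synonymous variants centered at 0 and nonsense variants (codons 1-471) at -1; low-abundance variants were removed.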

Variant | 8OG:A repair function score
G293M | -0.0432
S74L | -0.0187
S74Q | 0.00637
A357K | -0.152
A357Q | 0.125
T176H | -0.0301
T176E | -0.128
L423W | -0.0181
L423N | -0.091
V218Y | -0.62
H454I | -0.184
Q498P | -0.0275
R340I | -0.119
R340M | -0.107
R340G | -0.129
A203E | -0.0816
V62I | -0.00659
L131I | -0.158
L131V | -0.0573
A245M | -0.146
A245G | 0.0269

Variant | 8OG:A repair function score
A513C | -0.00572
L355V | -0.0573
E79M | -0.00235
S226T | -0.0677
S226F | -0.371
S226A | 0.0017
V485T | 0.00314
N503M | -9.05e-05
T260C | -0.129
T260E | -0.154
S54P | 0.00682
F453K | -0.87
G248K | -0.801
P494I | 0.0172
A259E | -0.0308
G372K | -0.479
D61R | -0.037
E375L | -0.83
E375H | -0.347
E375S | -0.243
E375P | -0.897

Variant | 8OG:A repair function score
E106F | -0.995
W124Y | -0.973
P488Q | -0.00562
G309Y | -0.0852
G309S | -0.0582
G309Q | -0.105
G309E | 0.02
N251H | -0.943
T417R | 0.199
L257D | -0.98
L257V | -0.182
V327Y | -0.526
V327K | -0.459
V327G | -0.53
V65Q | -0.0644
R283F | -0.16
R283A | -0.145
P442R | -0.0654
V414Y | -0.314
V47P | -0.0988
A101I | -0.0179

Variant | 8OG:A repair function score
G258N | -1.2
P339Y | -0.144
R482S | 0.0216
R482I | -0.00811
S419A | -0.188
R88N | -0.0146
L149I | -0.462
L403Q | 0.0753
R491Q | -0.00572
W447S | -1.01
P84T | -0.154
P84I | -0.257
R281W | -0.105
R98C | -0.578
Q499L | 0.00129
Q499K | -0.00715
R60G | -0.0378
Y100P | -2.33
R409E | 0.0558
V328H | -0.251
